Key:
BT4631^6S-Gal/GalNAc = biological target: T1, BT4631^6S-Gal/GalNAc (Bacteroides thetaiotaomicron, UniProt Q89YV0); test: desulfation assay; assay type: biochemical
T1 sequence (Q89YV0 26-520): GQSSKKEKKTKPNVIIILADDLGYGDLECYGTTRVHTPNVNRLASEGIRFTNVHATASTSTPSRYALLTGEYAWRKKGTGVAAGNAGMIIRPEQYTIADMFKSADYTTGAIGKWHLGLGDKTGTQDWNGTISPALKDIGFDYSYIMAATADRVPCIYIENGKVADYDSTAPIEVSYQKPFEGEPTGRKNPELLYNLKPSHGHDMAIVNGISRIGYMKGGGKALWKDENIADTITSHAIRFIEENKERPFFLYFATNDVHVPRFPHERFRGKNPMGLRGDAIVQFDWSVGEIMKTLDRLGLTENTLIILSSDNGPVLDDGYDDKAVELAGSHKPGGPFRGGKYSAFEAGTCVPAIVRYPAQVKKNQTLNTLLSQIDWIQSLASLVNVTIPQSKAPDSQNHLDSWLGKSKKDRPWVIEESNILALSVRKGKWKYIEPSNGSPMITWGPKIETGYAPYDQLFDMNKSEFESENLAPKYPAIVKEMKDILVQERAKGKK

[1] = biological target: BT1918^3S,6S-GlcNAc (Bacteroides thetaiotaomicron) (UniProt Q8A6G6); test: SEC-MALS
[2] = biological target: BT3796^4S-Gal/GalNAc (Bacteroides thetaiotaomicron) (UniProt Q8A171); test: SEC-MALS
SEC-MALS = biological target: the molecule itself; test: SEC-MALS

**Q.** Which “desulfation assay (kcat/KM only, supplement)” value (BT4631^6S-Gal/GalNAc) does the source give for CC(=O)N[C@H]1C(O)O[C@H](COS(=O)(=O)O)[C@H](O)[C@@H]1O (stereo partly drawn) [6S-GalNAc] here?
**A.** BT4631^6S-Gal/GalNAc cleave both 6S-GalNAc and 6S-Gal equally well

**Q.** Which “desulfation assay (kcat/KM only, supplement)” value (BT4631^6S-Gal/GalNAc) does the source give for O=S(=O)(O)OC[C@H]1OC(O)[C@H](O)[C@@H](O)[C@H]1O (stereo partly drawn) [6S-Gal] here?
**A.** BT4631^6S-Gal/GalNAc cleave both 6S-GalNAc and 6S-Gal equally well

**Q.** For “BT1918^3S,6S-GlcNAc (from UniProt Q8A6G6 1-500) (enzyme)”, which stoichiometry N [1] is on record?
**A.** 2

**Q.** With “BT3796^4S-Gal/GalNAc (from UniProt Q8A171 1-518) (enzyme)” as the molecule, how does the stoichiometry N [2] read?
**A.** 2

B1: BT3057^4S-Gal/GalNAc (enzyme, Bacteroides thetaiotaomicron, UniProt Q8A397 1-508, looked up)
chain: QERPNIIVFLVDDMGLMDTSVPFIADESGQPVRHPLNDWYHTPNMERLAKQGICFSTFYAQSVSSPSRASIMTGQNATRHGVTNWINAESNNRNPFGPPQWNWKGLRKDMPTMPRVLQQAGYKTIHVGKAHFGCMGSEGENPLNIGFDVNIAGSGIGHPGSYYGEWGYGHIKGQKIRAVPDLEKYHGTDTFLSEALTIEANREITKAVEEKRPFYLNMAHYAVHSPFQADKRFLSRYTDPDKNEQARAFATLIEGMDKSLGDIMDQLEKLGIAENTLILFLGDNGGDAPLGDERGYGSSAPLRGKKGTEFEGGMRVPFIAAWAKPEKKSKVQKNLPIEVGSMQTQLGTIMDIYPTVLSVAGCEVPQNYVIDGFDLKKQLSGKVDKKRPESFLMHFPHAHRGSYFTTYRMGDWKLIYYYLPETPKQPKALLYNLKDDPEERNELSAAHPDQCREMIREMSARLEKEGALYPVDKQGNELKPFVYF
**Q.** For B1, which “stoichiometry N” value (SEC-MALS) is on record?
**A.** 2

From PMC7613211 (Nature chemical biology, 2022)
